Starred links: 1 amine or outer side, 2 acyl side, 3 side chain; linkers in the order of their positions; H or OH if unused. Positions of bridges follow the written chain, without caps; N, C: chain ends. Non-standard residues stand in square brackets, D forms with d. hhL = hhLeu, CC(C)CCC[C@H](N[*:1])C(=O)[*:2]; Phe(4-F) = N[C@@H](Cc1ccc(F)cc1)C(=O)O; tBuAla = CC(C)(C)C[C@H](N)C(=O)O; R8 = C=CCCCCCC[C@@](C)(N)C(=O)O; αMeL = CC(C)C[C@](C)(N)C(=O)O; Chg = N[C@H](C(=O)O)C1CCCCC1; hLeu = CC(C)CC[C@H](N)C(=O)O; S5 = C=CCCC[C@](C)(N)C(=O)O

Holding throughout (test): Ki table, method not stated
Assay [1] deals with T1, MCL-1 (UniProt Q07820 172-327, limits assumed).
T1 construct: also called Myeloid cell leukemia 1

Assay [2] concerns the target BCL-2 (UniProt P10415 1-217, limits assumed).
The target of assay [3] is BCL-XL (UniProt Q07817 1-209).
BCL-XL, sequence (Q07817 1-209): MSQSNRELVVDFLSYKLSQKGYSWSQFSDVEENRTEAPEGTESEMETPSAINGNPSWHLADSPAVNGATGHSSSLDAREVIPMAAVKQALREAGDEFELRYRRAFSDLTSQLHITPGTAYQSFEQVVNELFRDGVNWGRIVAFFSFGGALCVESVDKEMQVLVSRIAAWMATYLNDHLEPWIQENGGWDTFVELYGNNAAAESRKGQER

T1 sequence (Q07820 172-327 limits assumed): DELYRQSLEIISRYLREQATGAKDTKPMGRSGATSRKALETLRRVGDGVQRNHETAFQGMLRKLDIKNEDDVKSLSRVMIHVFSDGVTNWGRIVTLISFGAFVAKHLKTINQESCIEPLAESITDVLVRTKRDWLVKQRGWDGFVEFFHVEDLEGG
BCL-2, sequence (P10415 1-217 limits assumed): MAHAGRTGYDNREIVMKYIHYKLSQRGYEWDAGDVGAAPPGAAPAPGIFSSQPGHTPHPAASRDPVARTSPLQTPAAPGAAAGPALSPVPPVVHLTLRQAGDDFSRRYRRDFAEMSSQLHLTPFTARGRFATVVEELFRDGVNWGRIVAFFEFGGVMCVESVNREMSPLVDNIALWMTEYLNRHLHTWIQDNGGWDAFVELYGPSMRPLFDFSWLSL

B1: SEQ ID NO: 1702 (peptide)
peptide: Ac-IWIAQALR[R8][hhL]GDAFN[S5]YYA-NH2
modifications: staple 9-16
SMILES: CC[C@H](C)[C@H](NC(C)=O)C(=O)N[C@@H](Cc1c[nH]c2ccccc12)C(=O)N[C@H](C(=O)N[C@@H](C)C(=O)N[C@@H](CCC(N)=O)C(=O)N[C@@H](C)C(=O)N[C@@H](CC(C)C)C(=O)N[C@@H](CCCNC(=N)N)C(=O)N[C@]1(C)CCCCCCC=CCCC[C@@](C)(C(=O)N[C@@H](Cc2ccc(O)cc2)C(=O)N[C@@H](Cc2ccc(O)cc2)C(=O)N[C@@H](C)C(N)=O)NC(=O)[C@H](CC(N)=O)NC(=O)[C@H](Cc2ccccc2)NC(=O)[C@H](C)NC(=O)[C@H](CC(=O)O)NC(=O)CNC(=O)[C@H](CCCC(C)C)NC1=O)[C@@H](C)CC
Usually Ki stands for the equilibrium dissociation constant of an inhibitor or competing ligand from its target. Consider B1, for which the Ki in assay [1] came out at 34.6 nM; in assay [2] it was 23.1 nM; in assay [3] it was 4 nM.

B2: SEQ ID NO: 1717 (peptide)
peptide: Ac-RWIAAALR[R8]IGDAFN[S5]YYA-NH2
modifications: staple 9-16
SMILES: CC[C@H](C)[C@H](NC(=O)[C@H](Cc1c[nH]c2ccccc12)NC(=O)[C@H](CCCNC(=N)N)NC(C)=O)C(=O)N[C@@H](C)C(=O)N[C@@H](C)C(=O)N[C@@H](C)C(=O)N[C@@H](CC(C)C)C(=O)N[C@@H](CCCNC(=N)N)C(=O)N[C@]1(C)CCCCCCC=CCCC[C@@](C)(C(=O)N[C@@H](Cc2ccc(O)cc2)C(=O)N[C@@H](Cc2ccc(O)cc2)C(=O)N[C@@H](C)C(N)=O)NC(=O)[C@H](CC(N)=O)NC(=O)[C@H](Cc2ccccc2)NC(=O)[C@H](C)NC(=O)[C@H](CC(=O)O)NC(=O)CNC(=O)[C@H]([C@@H](C)CC)NC1=O
B2: the Ki in assay [1] came to 4.5 nM; in assay [2], 47.8 nM; in assay [3], 32.8 nM.

B3: SEQ ID NO: 1705 (peptide)
peptide: Ac-[αMeL]WIAQALR[R8]IGDAFN[S5]YYA-NH2
modifications: staple 9-16
SMILES: CC[C@H](C)[C@H](NC(=O)[C@H](Cc1c[nH]c2ccccc12)NC(=O)[C@](C)(CC(C)C)NC(C)=O)C(=O)N[C@@H](C)C(=O)N[C@@H](CCC(N)=O)C(=O)N[C@@H](C)C(=O)N[C@@H](CC(C)C)C(=O)N[C@@H](CCCNC(=N)N)C(=O)N[C@]1(C)CCCCCCC=CCCC[C@@](C)(C(=O)N[C@@H](Cc2ccc(O)cc2)C(=O)N[C@@H](Cc2ccc(O)cc2)C(=O)N[C@@H](C)C(N)=O)NC(=O)[C@H](CC(N)=O)NC(=O)[C@H](Cc2ccccc2)NC(=O)[C@H](C)NC(=O)[C@H](CC(=O)O)NC(=O)CNC(=O)[C@H]([C@@H](C)CC)NC1=O
For the molecule B3, the Ki in assay [1] is 5.2 nM; in assay [2] it was 48.3 nM; in assay [3] it was 8.4 nM.

B4: SEQ ID NO: 1712 (peptide)
peptide: Ac-IW[hLeu]AQALR[R8]IGDAFN[S5]YYA-NH2
modifications: staple 9-16
SMILES: CC[C@H](C)[C@H](NC(C)=O)C(=O)N[C@@H](Cc1c[nH]c2ccccc12)C(=O)N[C@@H](CCC(C)C)C(=O)N[C@@H](C)C(=O)N[C@@H](CCC(N)=O)C(=O)N[C@@H](C)C(=O)N[C@@H](CC(C)C)C(=O)N[C@@H](CCCNC(=N)N)C(=O)N[C@]1(C)CCCCCCC=CCCC[C@@](C)(C(=O)N[C@@H](Cc2ccc(O)cc2)C(=O)N[C@@H](Cc2ccc(O)cc2)C(=O)N[C@@H](C)C(N)=O)NC(=O)[C@H](CC(N)=O)NC(=O)[C@H](Cc2ccccc2)NC(=O)[C@H](C)NC(=O)[C@H](CC(=O)O)NC(=O)CNC(=O)[C@H]([C@@H](C)CC)NC1=O
notes: also called Ac-IWhLAQALR$r8IGDAFN$YYA-NH2
With B4, the Ki was 3.7 nM in assay [1], 36.5 nM in assay [2] and 17 nM in assay [3].

B5: SEQ ID NO: 1706 (peptide)
peptide: Ac-IW[αMeL]AQALR[R8]IGDAFN[S5]YYA-NH2
modifications: staple 9-16
SMILES: CC[C@H](C)[C@H](NC(C)=O)C(=O)N[C@@H](Cc1c[nH]c2ccccc12)C(=O)N[C@@](C)(CC(C)C)C(=O)N[C@@H](C)C(=O)N[C@@H](CCC(N)=O)C(=O)N[C@@H](C)C(=O)N[C@@H](CC(C)C)C(=O)N[C@@H](CCCNC(=N)N)C(=O)N[C@]1(C)CCCCCCC=CCCC[C@@](C)(C(=O)N[C@@H](Cc2ccc(O)cc2)C(=O)N[C@@H](Cc2ccc(O)cc2)C(=O)N[C@@H](C)C(N)=O)NC(=O)[C@H](CC(N)=O)NC(=O)[C@H](Cc2ccccc2)NC(=O)[C@H](C)NC(=O)[C@H](CC(=O)O)NC(=O)CNC(=O)[C@H]([C@@H](C)CC)NC1=O
notes: also called Ac-IWAmLAQALR$r8IGDAFN$YYA-NH2
For B5, the Ki in assay [1] was found to be 19.8 nM; in assay [2] it was 24.8 nM; in assay [3], 7.2 nM.

B6: SEQ ID NO: 1713 (peptide)
peptide: Ac-IW[Chg]AQALR[R8]IGDAFN[S5]YYA-NH2
modifications: staple 9-16
SMILES: CC[C@H](C)[C@H](NC(C)=O)C(=O)N[C@@H](Cc1c[nH]c2ccccc12)C(=O)N[C@H](C(=O)N[C@@H](C)C(=O)N[C@@H](CCC(N)=O)C(=O)N[C@@H](C)C(=O)N[C@@H](CC(C)C)C(=O)N[C@@H](CCCNC(=N)N)C(=O)N[C@]1(C)CCCCCCC=CCCC[C@@](C)(C(=O)N[C@@H](Cc2ccc(O)cc2)C(=O)N[C@@H](Cc2ccc(O)cc2)C(=O)N[C@@H](C)C(N)=O)NC(=O)[C@H](CC(N)=O)NC(=O)[C@H](Cc2ccccc2)NC(=O)[C@H](C)NC(=O)[C@H](CC(=O)O)NC(=O)CNC(=O)[C@H]([C@@H](C)CC)NC1=O)C1CCCCC1
notes: also called Ac-IWChgAQALR$r8IGDAFN$YYA-NH2
On to B6, for which the inhibition constant Ki is 4.6 nM in assay [1], 38.9 nM in assay [2] and 20.9 nM in assay [3].

B7: SEQ ID NO: 1710 (peptide)
peptide: Ac-IWIAQALR[R8]IGDAFN[S5]Y[Phe(4-F)]A-NH2
modifications: staple 9-16
SMILES: CC[C@H](C)[C@H](NC(C)=O)C(=O)N[C@@H](Cc1c[nH]c2ccccc12)C(=O)N[C@H](C(=O)N[C@@H](C)C(=O)N[C@@H](CCC(N)=O)C(=O)N[C@@H](C)C(=O)N[C@@H](CC(C)C)C(=O)N[C@@H](CCCNC(=N)N)C(=O)N[C@]1(C)CCCCCCC=CCCC[C@@](C)(C(=O)N[C@@H](Cc2ccc(O)cc2)C(=O)N[C@@H](Cc2ccc(F)cc2)C(=O)N[C@@H](C)C(N)=O)NC(=O)[C@H](CC(N)=O)NC(=O)[C@H](Cc2ccccc2)NC(=O)[C@H](C)NC(=O)[C@H](CC(=O)O)NC(=O)CNC(=O)[C@H]([C@@H](C)CC)NC1=O)[C@@H](C)CC
In the case of B7, the inhibition constant Ki was found to be 4.8 nM in assay [1], 91.8 nM in assay [2] and 9.5 nM in assay [3].

B8: SEQ ID NO: 1719 (peptide)
peptide: Ac-HWIAAALR[R8]IGDAFN[S5]YYA-NH2
modifications: staple 9-16
SMILES: CC[C@H](C)[C@H](NC(=O)[C@H](Cc1c[nH]c2ccccc12)NC(=O)[C@H](Cc1c[nH]cn1)NC(C)=O)C(=O)N[C@@H](C)C(=O)N[C@@H](C)C(=O)N[C@@H](C)C(=O)N[C@@H](CC(C)C)C(=O)N[C@@H](CCCNC(=N)N)C(=O)N[C@]1(C)CCCCCCC=CCCC[C@@](C)(C(=O)N[C@@H](Cc2ccc(O)cc2)C(=O)N[C@@H](Cc2ccc(O)cc2)C(=O)N[C@@H](C)C(N)=O)NC(=O)[C@H](CC(N)=O)NC(=O)[C@H](Cc2ccccc2)NC(=O)[C@H](C)NC(=O)[C@H](CC(=O)O)NC(=O)CNC(=O)[C@H]([C@@H](C)CC)NC1=O
B8: the Ki in assay [1] turned out to be 3.6 nM; in assay [2] it was 52 nM; in assay [3], 25.2 nM.

B9: SEQ ID NO: 1718 (peptide)
peptide: Ac-KWIAAALR[R8]IGDAFN[S5]YYA-NH2
modifications: staple 9-16
SMILES: CC[C@H](C)[C@H](NC(=O)[C@H](Cc1c[nH]c2ccccc12)NC(=O)[C@H](CCCCN)NC(C)=O)C(=O)N[C@@H](C)C(=O)N[C@@H](C)C(=O)N[C@@H](C)C(=O)N[C@@H](CC(C)C)C(=O)N[C@@H](CCCNC(=N)N)C(=O)N[C@]1(C)CCCCCCC=CCCC[C@@](C)(C(=O)N[C@@H](Cc2ccc(O)cc2)C(=O)N[C@@H](Cc2ccc(O)cc2)C(=O)N[C@@H](C)C(N)=O)NC(=O)[C@H](CC(N)=O)NC(=O)[C@H](Cc2ccccc2)NC(=O)[C@H](C)NC(=O)[C@H](CC(=O)O)NC(=O)CNC(=O)[C@H]([C@@H](C)CC)NC1=O
B9: the inhibition constant Ki is 3.9 nM in assay [1], 49.7 nM in assay [2] and 27.2 nM in assay [3].

B10: SEQ ID NO: 1716 (peptide)
peptide: Ac-EWIAAALR[R8]IGDAFN[S5]YYA-NH2
modifications: staple 9-16
SMILES: CC[C@H](C)[C@H](NC(=O)[C@H](Cc1c[nH]c2ccccc12)NC(=O)[C@H](CCC(=O)O)NC(C)=O)C(=O)N[C@@H](C)C(=O)N[C@@H](C)C(=O)N[C@@H](C)C(=O)N[C@@H](CC(C)C)C(=O)N[C@@H](CCCNC(=N)N)C(=O)N[C@]1(C)CCCCCCC=CCCC[C@@](C)(C(=O)N[C@@H](Cc2ccc(O)cc2)C(=O)N[C@@H](Cc2ccc(O)cc2)C(=O)N[C@@H](C)C(N)=O)NC(=O)[C@H](CC(N)=O)NC(=O)[C@H](Cc2ccccc2)NC(=O)[C@H](C)NC(=O)[C@H](CC(=O)O)NC(=O)CNC(=O)[C@H]([C@@H](C)CC)NC1=O
For the molecule B10, the results for the Ki in assay [1], in assay [2] and in assay [3] were 2.2 nM, 118 nM and 72 nM, respectively.

B11: SEQ ID NO: 1711 (peptide)
peptide: Ac-IW[tBuAla]AQALR[R8]IGDAFN[S5]YYA-NH2
modifications: staple 9-16
SMILES: CC[C@H](C)[C@H](NC(C)=O)C(=O)N[C@@H](Cc1c[nH]c2ccccc12)C(=O)N[C@@H](CC(C)(C)C)C(=O)N[C@@H](C)C(=O)N[C@@H](CCC(N)=O)C(=O)N[C@@H](C)C(=O)N[C@@H](CC(C)C)C(=O)N[C@@H](CCCNC(=N)N)C(=O)N[C@]1(C)CCCCCCC=CCCC[C@@](C)(C(=O)N[C@@H](Cc2ccc(O)cc2)C(=O)N[C@@H](Cc2ccc(O)cc2)C(=O)N[C@@H](C)C(N)=O)NC(=O)[C@H](CC(N)=O)NC(=O)[C@H](Cc2ccccc2)NC(=O)[C@H](C)NC(=O)[C@H](CC(=O)O)NC(=O)CNC(=O)[C@H]([C@@H](C)CC)NC1=O
notes: also called Ac-IWTbaAQALR$r8IGDAFN$YYA-NH2
In the case of B11, the Ki turned out to be 10.9 nM in assay [1], 36.6 nM in assay [2] and 17.2 nM in assay [3].

The values above are taken from US20180273587A1 (AILERON THERAPEUTICS, published 2018).
